Drawing on the RNAGym collection of RNA variant scans (doi:10.7554/elife.90254), this text covers self-cleavage for 21 variants.

The labels stand for the following.
B1: OR4K15 (parent)
chain: GUUAACGGUCAUAGGCCAUGGAAACUAGGAGCACCAUUUCGCUGCCAGUGAAGAAAUGAACAAAGAAAAUCUGGGCCAGGCAGGCAUCAAAAGAAAUAGUCUUGCGCUCAACCAGAAAGUCUGUAAUCAUUUUAAGGGUA

Variants of B1 are the subject of this series. In words: self-cleavage, relative activity (ratio to wild type); higher = more cleavage; in vitro, sequencing; the parent is a self-cleaving ribozyme.
For the variant GUUAACGGUCAUAGGCCAAGGAAACUAGGAGCACCAUUUCGCUGCCAGUGAAGAAAUGAACAAAGAAAAUCUGGGCCCGGCAGGCAUCAAAAGAAAUAGUCUUGCGCUCAACCAGAAAGUCUGUAAUCAUUUUAAGGGUA [U19A A78C], the self-cleavage is 0.29.

Turning to GUUAGCGGUCAUAGGCCAUGGAAACUAGGAGCACCAAUUCGCUGCCAGUGAAGAAAUGAACAAAGAAAAUCUGGGCCAGGCAGGCAUCAAAAGAAAUAGUCUUGCGCUCAACCAGAAAGUCUGUAAUCAUUUUAAGGGUA [A5G U37A], the self-cleavage came out at 1.3. In the case of GUUAACGGUCAUAGGCCAUGGAAACUAGGAGCGCCAUUUCGCUGCCAGUGAAGAAAUGAACAAAGAAAAUCUGGGCCAGGCAGGCAUCAAAAGAAAUGGUCUUGCGCUCAACCAGAAAGUCUGUAAUCAUUUUAAGGGUA [A33G A98G] it was 0.77. In the case of GUUAACGGUCAUAGGCCAUGGAAACUAGGAGCAACAUUUCGCUGCCAGUGAAGAAAUGGACAAAGAAAAUCUGGGCCAGGCAGGCAUCAAAAGAAAUAGUCUUGCGCUCAACCAGAAAGUCUGUAAUCAUUUUAAGGGUA [C34A A59G] it was 1.11; in that of GUUAACGGUCAUAGGCCAUGGAAACUAGGAGCACCAUUUCGCUGCCAGUGAAGAAAUGAACAAUGAAAAUCUGGGCCAGGCAGGCAUCAAAAGAAAUAGUCUUGCGCUCAACCAGAAAGUCUGUAACCAUUUUAAGGGUA [A64U U127C], 1.66; in that of GUUAACGGUCAUAGGCCAUGGAAACUAGGAGCACCAUUUCGCUGCCAGUGAAGAAAUGAACAAAGAGAAUCUGGGCCAGGCUGGCAUCAAAAGAAAUAGUCUUGCGCUCAACCAGAAAGUCUGUAAUCAUUUUAAGGGUA [A67G A82U], 0.07.

Consider GUUAACGGUCAUAGGCCAUGGAAACUAGGUGCACCAUUUCGCUGCCAGUGAAGAAAUGAACAAAGAAAAUCUGGGCCAGGCAGGCAUCAAUAGAAAUAGUCUUGCGCUCAACCAGAAAGUCUGUAAUCAUUUUAAGGGUA [A30U A91U], for which the self-cleavage came out at 0.83. In the case of GUUAACGGUCAUAGGCCAUGGAAACUAGGAGCACCAUUUCGCUGCCAGUGAAGAAGUGAACAAAGUAAAUCUGGGCCAGGCAGGCAUCAAAAGAAAUAGUCUUGCGCUCAACCAGAAAGUCUGUAAUCAUUUUAAGGGUA [A56G A66U] it was 0.92; in that of GUUAACGGUCAUAGGCCAUGGAAACUAGGAGCACCAUUUCGCUGCCAGUGAAGAAGUGAACAAAGAAAAUCUGGGCCAGGCAGGCAUCGAAAGAAAUAGUCUUGCGCUCAACCAGAAAGUCUGUAAUCAUUUUAAGGGUA [A56G A89G], 1.5; in that of GUUAACGGCCAUAGGCCAUGGAAACUAGGAGCACCAUUUCGCUGCCAGUGAAGAAAUGAACAAAGAAAAUCUGGGCCAGGCCGGCAUCAAAAGAAAUAGUCUUGCGCUCAACCAGAAAGUCUGUAAUCAUUUUAAGGGUA [U9C A82C], 0.07. Under GUUAACGGUCAUAGGCCAUGGAAACUAGGAGCACCAUUUCGCUGCCAGUGAAGAAAUGAACAAAGAAAAUCUGGGCCAAGCAGGCAUCAAAAGAAAUAGUCUUGCGCUCAAGCAGAAAGUCUGUAAUCAUUUUAAGGGUA [G79A C112G] stands 0.12; under GUUAACGGUCAUAGGCCAUGGAAACUAGGAGCACCAUUUCGCUGCCAGUGAGGAAAUGAUCAAAGAAAAUCUGGGCCAGGCAGGCAUCAAAAGAAAUAGUCUUGCGCUCAACCAGAAAGUCUGUAAUCAUUUUAAGGGUA [A52G A60U], 0.9. In the case of GUUAACGGUCAUAGGCCGUGGAAUCUAGGAGCACCAUUUCGCUGCCAGUGAAGAAAUGAACAAAGAAAAUCUGGGCCAGGCAGGCAUCAAAAGAAAUAGUCUUGCGCUCAACCAGAAAGUCUGUAAUCAUUUUAAGGGUA [A18G A24U] it was 1.6; in that of GUUAACGGUCAUAGGCCGUGGAAACUAGGAGCACCAUUUCGCUGCCAGUGAAGAAAUGAACAAAGAAAAUCUGGGCCAGGCAGGCAUCAAAAGAAAUAGUCUAGCGCUCAACCAGAAAGUCUGUAAUCAUUUUAAGGGUA [A18G U103A], 1.13. Turning to GUUAACGGUCAUAGGCCACGGAAACUAGGAGCACCAUUUCGCUGCCAGUGAAGAAAUGAACAAAGAAAAUCUGGGCCAGGCAGGCACCAAAAGAAAUAGUCUUGCGCUCAACCAGAAAGUCUGUAAUCAUUUUAAGGGUA [U19C U87C], the self-cleavage turned out to be 1.52. GUUAACGGUCAUAGGCCAUGGAAACUAGGAGCACCAUUUCGCUGCCAGUGAAGAAUUGAACAAAGUAAAUCUGGGCCAGGCAGGCAUCAAAAGAAAUAGUCUUGCGCUCAACCAGAAAGUCUGUAAUCAUUUUAAGGGUA [A56U A66U]: the self-cleavage was 0.42. In the case of GUUAACGGUCAUAGGCCAUGGAAACUAGGAGCACCAUUUCGCUGCCAGUGAAGUAAUGAACAAAGAAAAUCUGGGCCAGGCAGGCAUCAAAAGGAAUAGUCUUGCGCUCAACCAGAAAGUCUGUAAUCAUUUUAAGGGUA [A54U A94G] it was 1.64. In the case of GUUAACGGUCAUAGGCCAUGGAAACUAGGAGCACCAUUUCGCCGCCAGUGAAGAAAUGAACAAGGAAAAUCUGGGCCAGGCAGGCAUCAAAAGAAAUAGUCUUGCGCUCAACCAGAAAGUCUGUAAUCAUUUUAAGGGUA [U43C A64G] it was 1.66; in that of GUUAACGGUCGUAGGCCAUGGAAACUAGGAGCACCAUUUCGCUGCCAGUGAAGAAAUGAACAAAGAAAAUCUGGGCCAGGCAGGCAUCAAAAGAAAUAGUCUUGCGCUCAACCAGAAAGUCUGUAACCAUUUUAAGGGUA [A11G U127C], 0.63; in that of GUUAACGGUCAUAGGCCACGGAAACUAGGAGCACCAUUUCGCUGCCAGUGAAGAAAUGAACAAAGAAAAUCUGGGCCAGGCAGGCAUCAAAAGAAAUAGUCUUGCGCUCAACCAGAAAGUCUGUAAUCAUUUUAAAGGUA [U19C G136A], 1.38. In the case of GUUAACGGUCAUAGGCCAUGGAAACUAGGAGCACCAUUUCGCUGCCAGUGAAGAAAUGAACAAAGAAAAUCCGGGCCAGGCAGGCAUCAAAAGAAAUAGUCUUGCGCUCAAUCAGAAAGUCUGUAAUCAUUUUAAGGGUA [U72C C112U] it was 0.02.
